No end group written: not given here. *: point of attachment. Myristoyl = CCCCCCCCCCCCCC(=O)*
B1: FMNL1 peptide Myr-GNAAGSAEQPAGK-FAM (peptide)
peptide: Myristoyl-GNAAGSAEQPAGK(FAM)
B2: UNC119B, full-length, C-terminal His6 (natural protein)
chain: not shown

These binders were tested against UNC119A, full-length, C-terminal His6 (human, UniProt Q13432 1-240) (assay: fluorescence polarisation).

| Binder | binding result | Kd [nM] |
| --- | --- | --- |
| Myristoyl-GAAASRRRAK(FAM) [NSMF peptide Myr-GAAASRRRAK-FAM] | binds |  |
| Myristoyl-GCTVSAEDK(FAM) [GNAI2 peptide Myr-GCTVSAEDK-FAM] | binds |  |
| Myristoyl-GTASSLVSPAGGK(FAM) [NPHP3 peptide Myr-GTASSLVSPAGGK-FAM] |  | 0.84 |
| Myristoyl-GAGASAEEKHSRK(FAM) [GNAT1 peptide Myr-GAGASAEEKHSRK-FAM] | binds |  |
| Myristoyl-GNAAAAKKGK(FAM) [PKA peptide Myr-GNAAAAKKGK-FAM] | binds |  |
| Myristoyl-GGAVSAGEDNDDK(FAM) [PCMTD1 peptide Myr-GGAVSAGEDNDDK-FAM] |  | 5.25 |
| B1 | binds |  |

These binders were tested against B2 (assay: fluorescence polarisation).

| Binder | binding result | Kd [nM] |
| --- | --- | --- |
| Myristoyl-GAAASRRRAK(FAM) [NSMF peptide Myr-GAAASRRRAK-FAM] | binds |  |
| Myristoyl-GCTVSAEDK(FAM) [GNAI2 peptide Myr-GCTVSAEDK-FAM] | binds |  |
| GCGCSSHPEDK (not fully specified; N-terminal myristoyl on Gly; FAM on the C-terminal Lys) [LCK peptide Myr-GCGCSSHPEDK-FAM] |  | 0.37 |
| Myristoyl-GTASSLVSPAGGK(FAM) [NPHP3 peptide Myr-GTASSLVSPAGGK-FAM] |  | 0.17 |
| Myristoyl-GAGASAEEKHSRK(FAM) [GNAT1 peptide Myr-GAGASAEEKHSRK-FAM] | binds |  |
| Myristoyl-GNAAAAKKGK(FAM) [PKA peptide Myr-GNAAAAKKGK-FAM] | binds |  |
| Myristoyl-GGAVSAGEDNDDK(FAM) [PCMTD1 peptide Myr-GGAVSAGEDNDDK-FAM] |  | 72.6 |
| B1 | binds |  |

Biological target: B1
Assay: fluorescence polarisation

| Binder | fold lower affinity than to UNC119A [fold] |
| --- | --- |
| B2 | 9.5 |

— publication PMC8246649 (Biochemistry, 2021)
